This is an account of results in a protein production outcome set (Wang et al. 2014).

The data set is described as follows: label from the status in PepcDB records.
With “MSSFAELLQQGASQAWLYFPSAILLGALHGLEPGHSKTMMAAFIVAIRGTVKQAVLLGLASTLSHTAVVWLVAMAGMYLGQNLNAETTEPYFQLASAAIIITIALWMLWRTWRGEQMWRFEEGDDLQHDYHHHDEMQRIDTGHGRIELSIFEEGVPPRWRLNILTGHAWSAAEMSLLTTRPDGLAQQFRFVDRGDYLESVDEIPEPHEFTARLSLGHAGHSHDYDLEFHEHGHGHGHDHAELEGLELSLEGYQDAHERAHANDIRKRFSNRNVTTGQIILFGLTGGLIPCPAAITVLLLCLQVKEVALGAVLVLCFSIGLAITLVTVGAAAAIGARQASNRWPWLGAVARRAPYLSSLLIIGVGIYVGVHGWIGLNA”, the protein production result was “failed”. Consider “MKFFGEIAERAGVPSVMGEILAGILFGALFLDVETGIITFFAQLGSIFLLFTAGYKEVSLRDLRPAVLVAFIPTLTQLVFAFAFGFMLGKIFNFTFLQSLFMAVALSPTAIGVVIRILIDLNYLSSRPGLVMLSSAVLDDIIAISLLSLIVTFARFNRAPSALAVLTISGKILLFLLIMYILGKYFFPRLFVHAQKMHAKEAVFSLVVMTALFSSYLAELFELHATIGAFIGGMLISEIPLAKIPDVQSKVEGLAYGILIPLFFAFIGYSIDLYALVKAGIFVPVVTLLALSGKLIGGFIGSKAIGFNFCESLAFGAGVMPRAGIELVMLTIGRGIGIIGEEIFSAMVFMVIVSILISPSALKFAIQAERKNKTGNELKVG”, for which the protein production result was “failed”. With “MDRNSKIVVGLVAVLSIAGLVLSLAGLLEGGEGTIAIIPVHGAIAYDTAGFSDGVDPDDIKELIAEANSDPSVKAIVLDINSPGGTPVASEELMDAINKSEKPVVSWISDSGTSGAYLAASASDRIVASPSAWVGSIGVILDLTDLSQMYRQMGINKYAIKAGEYKDMGADYRMITDEERQMLQSMVNEEYDYFIKTVAANRNLSVSYVKSLAEGRIFTGRQAVRNRLVDFTGGKDYAVEVAAKLAGVKNYNTITLEPPSGFLRVLSSMFSRLGFASGNTTEELQLH” the entry was “failed”. With “MNPADWIDTGAVPPRPLPAKVDAALAYLAEALGHPVYAHWTLTRIKRRYGSLADAKAAQPTVLKLLLTHDGAVEYWERGRLRTAPADQAPSPDAVLARLLHTHRRRFRSADASANAGAVPATAQTTGLVANPWLAAHSHADHAWLARTGRFAQPQAAANTLGAVDDAQALALFLRDRTGRSSHTLRAYGAELRRLMRWCGTHGFGPFSDLTRQQLLAYRHTLEHGSSGTANTTPPLSEATRTRALAVVASLYGYWYATGYLHANPAAGLSAGSRARSGFVPTRLIPSALLDACDAWLDANSAGDLLPALRQRAIWALYRYAGVRLAELAWSAETALPRLEAEAPGRWTLYVCGKGRKVRAIPLPAQCMVVLRAYRRARGLPPEPSAHETLPVIHGSKGEALQQTGLYREIKAIFAVVADGLQAREPAKAMLLRAASPHWLRHAYARTLVVDHQVPLPAAQALLGHASVQTTAAYAKTDLTQLRAFVDATFADDVP” the entry was “failed”; with “MITRLVLATAGAAVALGLPADVRAYEYEQEATTKLMTDMIVDLGGHDTVRRNSGKTVRCGDGGTRRVSIVRRGATTTYRGDYRNCRERGLTRDGFYEIVFKGDEIVSSTSKRSVNGELFDAAMAGNAAGVRKLIRARADVNYTESVDRTEGGTIDGVSPLMVATMAGSLDTVKLLVANGAWVNYLNSMAVNALWIAAHNGHPEIVRYLAGRGAYLNNSNVEDVTPLMAAAMNGHLAVVKFLVGAKADINAVHRDGDTALMFALAQNRTDIARFLIDAGADVAVRNRHGVTALLIAVAEGNEEIVRALLERKADVSVRTADGKSALDVARARGMDGIAKLLEAAGSY”, “failed”; with “MGTTGFTIIDLIILIVYLLAVLVAGIYFSKKEMKGKEFFKGDGSVPWYVTSVSIFATMLSPISFLGLAGSSYAGSWILWFAQLGMVVAIPLTIRFILPIFARIDIDTAYDYLDKRFNSKALRIISALLFIIYQLGRMSIIMYLPSAGLSVLTGIDINILIILMGVVAIVYSYTGGLKSVLWTDFIQGVILISGVVLALFVLIANIKGGFGAVAETLANGKFLAANEKLFDPNLLSNSIFLIVMGSGFTILSSYASSQDLVQRFTTTQNIKKLNKMLFTNGVLSLATATVFYLIGTGLYVFYQVQNADSAASNIPQDQIFMYFIAYQLPVGITGLILAAIYAASQSTISTGLNSVATSWTLDIQDVISKNMSDNRRTKIAQFVSLAVGLFSIGVSIVMAHSDIKSAYEWFNSFMGLVLGLLGGVFILGFVSKKANKQGAYAALIVSTIVMVFIKYFLPPTAVSYWAYSLISISVSVVSGYIVSVLTGNKVSAPKYTTIHDITEIKADSSWEVRH”, “failed”. In the case of “MRNKNMSTIYQTSATASAGRNGVVSTEDKLLELNLSYPKEMGGSGTATNPEQLFAVGYAACFSNAILHVAREAKVALKEAPVTATVGIGPNGQGGFALSVALAAHIALEDEQARQLVTVAHQVCPYSNAVRGNIDVQVSVNGLAL”, the protein production result is “not failed”. As for “NLNAIQNFGAMDILCTDKTGTLTCDKIVLEKYINADGSDDNSKRILRHAYFNSYFQTGLRNLMDKAILSHVRELNLEHLKDAYTKVDEIPFDFTRRRMSVVIEDRQGKRQIITKGAVEEILDVCSYAEFDREIHPLTDSLKIKAQKISEEMNRQGMRVLAVSQKSFIEKDCNFAIEDEKEMVLIGYLAFLDP”, the protein production entry is listed as “not failed”. To “MFRQSKRRIASRKNFSSYDDIVKSELDVGNTNAANQIILSSSSSEEEKKLYARLYESKLSFYDLPPQGEITLEQFEIWAIDRLKILLEIESCLSRNKSIKEIETIIKPQFQKLLPFNTESLEDRKKDYYSHFILRLCFCRSKELREKFVRAETFLFKIRFNMLTSTDQTKFVQSLDLPLLQFISNEEKAELSHQLYQTVSASLQFQLNLNEEHQRKQYFQQEKFIKLPFENVIELVGNRLVFLKDGYAYLPQFQQLNLLSNEFASKLNQELIKTYQYLPRLNEDDRLLPILNHLSSGYTIADFNQQKANQFSENVDDEINAQSVWSEEISSNYPLCIKNLMEGLKKNHHLRYYGRQQLSLFLKGIGLSADEALKFWSEAFTRNGNMTMEKFNKEYRYSFRHNYGLEGNRINYKPWDCHTILSKPRPGRGDYHGCPFRDWSHERLSAELRSMKLTQAQIISVLDSCQKGEYTIACTKVFEMTHNSASADLEIGEQTHIAHPNLYFERSRQLQKKQQKLEKEKLFNNGNH” belongs “failed”; to “MGGIIIIDVHCHLDFKDFNRNREEVIERARSKLRAVIDSGVGLGGNRRALELASLNPGFICPTMGFHPVDASKARQDLIGEVVSQIESNIDLIVAVGETGMDFHHTRDEEGRRRQEETFRVFVELAAEHEMPLVVHARDAEERALETVLEYRVPEVIFHCYGGSIETARRILDEGYYISISTLVAFSEHHMELVRAIPLEGMLTETDSPYLSPFRGKRNEPAFVEEAVRAIARIKDMDLEDVDSITTANAERVFGL”, “failed”. Turning to “MQMSMLTRLHYFNCVVETGSISKASRIFDVQPSSISRQLTALEKELGVLLLKRTSRNIGLTEAGQTYYKYSQKIVSDLDEARCAVNDLQQKPKGNLKVSMAVGFAECCILPMIPTFTKLYPEINLELEMTGRVVDLVEENVDVAIRTGRLRDSNLIALKLTSNNFLLCASPQYITEHGTPKSPFNLTDFECIRYEYAGWRDWYLMNDKPTKLTIKSGLTVRSINGQKQLILNHAGLALMPKWSVINELDNGTLVQVLEQNIFSPYESMSSTYAIYLKRELISPKVRVFIDFIKDHIDYNS”, the protein production entry is on record as “failed”. Take “MGANEDQEMELEALRSIYEGDNSFRELSPVSFQYRIGEDGDPKAFLIEVSWTETYPQTAPVISMNAFFNNTISSAVKQSILAKLQEAVEVNLGTAMTYTLFEYAKDHKEQFMENHHPGNSATPVANIISVETPTTAPSSKKKEKKEQLSKAQKRKLADKTDHKGELPRGWNWVDVVKHLSKTGSKDDE”: the protein production entry is “failed”.

Consider “MQETDSGAGPRTLRRGLMVLAALRDQGPRGLSVTDIARQTGIQRPTIYRLLAALLDAGLVVPLQGTKKYRTQLAADADLAAPNPRVRQMLPVLRRLADRTGDAVFLVVRDGDDSVSLHREIGSYPVQILATYAGKRQPLGVGSGSMALLAALPDEVAHAIVQRNSGRLDEYGGMTPQEMHRLIENTRARGYSVVGNHAVRGALGVGCALLDAQGAPVLAVSVTAIIDRMPAQRQREIAGWIGAELARLAPKA”, for which the protein production entry is reported as “failed”. As to “MIVIEKLTVDMARGVENNLEGLQIFVAVAEAGGFTAAAERLGMTKANVSLQVGRLEAQLGATLFTRTTRRVKLTEAGQALYLDAQPALAALRDALLQAGHGAAELSGTLRLTAPVSHMAESVAPAATQFIRRHPGLQLELHAIDRMVDLVAEGMDLAIRLGTLRDSSLRALKLGEFAQQLVASPAYLRERGMPAHPGELAGHDWVALTLLKTPLTWRFAGAGGAEETVRMRARIKVDSAASLRSLLLAGAGMSVLDSFSVQEDLRQGRLIHLLPQWTLPKGGVYAVFPPGRHAPAAARAFVEFYRVLLARPV”, the protein production result is recorded as “failed”.

Regarding “MNDGKATPGEAGCRENQLLKLPGFGNFTIIDRYIARQFLTIFLFALASFAALFILINLVENLDRFLDRHISFGRILIYYLSGLPDTFLLTSPLSVLLASLFVTGKLSMQSELPALKSAGMSLSRLMKPFLLVTMAIAALNTINSCFIAPAMYDWSKGFEKRYLKKQQDNGEEPLHIRESNNRILTVAKIGPDKKSATTVSLETFNGSQIVSRIDADSLRIITRHKYWIFYNTKQRTFSKGAETLVTRAGADTLKLSLAPNTFKMIDTDPDEMNIVQHIDFIWQKARSGLPGLERATVKLHTKLALPLASMIIVLIGVPLSSKKKRSGLAVEISISLLIGLLYLGMLKTIGSLGYDGLLNPVLAAWLPDILFIIAGTFLYRSADH”, the protein production result is on record as “failed”. With “MEAFFRHAERVAHPSPRLRLLLALGHRMRGELDRGLAVLEGFPEEDPALLAEALLAQGTLLGLKGAHGEAEDVFSQGVALGETPLRARFLTSRGAARIRLGRYREAAEDLEEALFLSRKERLKEVEALALHNLAIARHHLGELAEAVRLYREVLPLKTAPLSRAYTLLSLGEALSYLGRFLEAKRTLFRAREEAWASGDYRAMGYTLLNLADLYREAGLPEAEGLYREAEAHLEKAHDPYALGLVHLGLARLGAKGSLERARALFQEGGSPGELAEWHLVAGRLCGRPEHFEEALRLAEKAGAGRLLLLARLELFLKAPSPGEAKALAREVLKAGFQDFWLWERAFPLPLLAFEAGEEGLLEALLAGVGWLRARSLKALEARTEEGPLPLPSRKELLLLLLLWRRKALEAEALARLLFPGSKNPKKRLQVAVHHLREALDPDLVRLEGEAYRAYLPPGVWWDARVKEGLLRWARRLSLPQAQARVEEALPGRFSPQAYLTDP” the entry was “failed”; with “MSLQLRLALNQIDSTVGDIAGNAEAILRWTRHSAEQGAHLVAFPEMALTGYPVEDLALRSSFVEASRTALRELAARLAEEGFGELPVLVGYLDRSESAQPKYGQPAGAPRNAAAVLHRGRVALTFAKHHLPNYGVFDEFRYFVPGDTMPIVRLHGVDIALAICEDLWQDGGRVPAARSAGAGLLLSVNASPYERDKDDTRLELVRKRAQEAGCTTAYLAMIGGQDELVFDGDSIVVDRDGEVVARAPQFSEGCVVLDLDLPAAEAEPPTGVVDDGLRIDRLVISEEPLPAYEAELAGGYADRLDADEEVYSALVVGLRAYVAKNGFRSVLIGLSGGIDSALVAAIACDALGAQNVYGVSMPSKYSSDHSKGDAAELARRTGLNFRTVSIEPMFDAYMASLGLTGLAEENLQSRLRGTTLMAISNQEGHIVLAPGNKSELAVGYSTLYGDSVGAYGPIKDVYKTSIFRLAEWRNRAAAERGQTPPIPEASITKPPSAELRPGQVDTDSLPDYPVLDAILELYVDRDTGADAIVAAGYDRELVVKTLRMVDTAEYKRRQYPPGTKISAKGFGKDRRLPITNRWREGHHHHHH”, “not failed”.
